PMC4889933 (Nucleic Acids Research, 2016)

T1: LigD protein of B. subtilis (LigD_(Bsub)), C-terminal His6 (B. subtilis, UniProt O34398 1-611)
T1 sequence (looked up): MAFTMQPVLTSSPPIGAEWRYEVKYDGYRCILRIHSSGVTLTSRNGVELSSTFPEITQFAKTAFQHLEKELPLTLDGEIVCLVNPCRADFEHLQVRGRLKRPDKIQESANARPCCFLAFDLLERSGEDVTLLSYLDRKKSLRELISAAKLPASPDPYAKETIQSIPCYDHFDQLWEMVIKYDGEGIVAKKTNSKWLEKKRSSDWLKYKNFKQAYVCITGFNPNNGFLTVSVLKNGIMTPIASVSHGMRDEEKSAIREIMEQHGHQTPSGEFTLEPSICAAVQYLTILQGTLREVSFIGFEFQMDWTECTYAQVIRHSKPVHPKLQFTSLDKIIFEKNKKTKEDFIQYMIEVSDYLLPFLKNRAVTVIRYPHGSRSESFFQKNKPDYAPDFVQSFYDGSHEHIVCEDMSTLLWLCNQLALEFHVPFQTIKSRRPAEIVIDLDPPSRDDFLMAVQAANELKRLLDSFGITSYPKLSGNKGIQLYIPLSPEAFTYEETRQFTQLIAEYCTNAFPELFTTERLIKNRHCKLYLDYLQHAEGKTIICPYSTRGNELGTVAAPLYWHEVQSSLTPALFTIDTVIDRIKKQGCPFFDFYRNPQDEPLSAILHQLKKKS


Legend:
cross-linking = target: the molecule itself; assay: cross-linking
[1] = target: T1, LigD protein of B. subtilis …; assay: SPR

Row | Kd [1] [µM] | Binder | stoichiometry N (cross-linking)
1 | – | Ku core, Ku_(Bsub) truncated of the entire C-terminal domain (M18 to P256 of NP_389224.1), N-terminal His6 (domain or fragment, B. subtilis 168, UniProt O34859 18-256, looked up) MHTMWKGSISFGLVNIPIKLYAATEDKDIKLRSLHKEDHAPIKYEKVCTNCEKTLSPDEIVKGYEYVKGKYVVLTDEDLKSLKQEHEEKAVEIVDFVQLQEIDPIYFNRSYFVGPGDNGTKAYTLLREALRSTGKIGIANMTIRSKQQLAILRVYENCIVMESIHYPDEVRSAAQVPGVPDQSNVNDKELQTAITLIDELTAKFEPEKYEDTYRQALLQRVNDKLENKETAVTPDKAPP | 2
2 | 11 | KuΔexCter, Ku_(Bsub) truncated of the extended Cter (M18 to P277 of NP_389224.1), N-terminal His6 (domain or fragment, B. subtilis 168, UniProt O34859 18-277, looked up) MHTMWKGSISFGLVNIPIKLYAATEDKDIKLRSLHKEDHAPIKYEKVCTNCEKTLSPDEIVKGYEYVKGKYVVLTDEDLKSLKQEHEEKAVEIVDFVQLQEIDPIYFNRSYFVGPGDNGTKAYTLLREALRSTGKIGIANMTIRSKQQLAILRVYENCIVMESIHYPDEVRSAAQVPGVPDQSNVNDKELQTAITLIDELTAKFEPEKYEDTYRQALLQRVNDKLENKETAVTPDKAPPREDVIDLVSALQASIDRTRRP | 2
